PMC6083883 (Molecular cell, 2018)

Target: recombinant biotin-FLAG-tagged human ATM (human, UniProt Q13315 1-3056, biotin)
Assay: pull-down

recombinant biotin-FLAG-tagged human ATM, sequence (Q13315 whole entry): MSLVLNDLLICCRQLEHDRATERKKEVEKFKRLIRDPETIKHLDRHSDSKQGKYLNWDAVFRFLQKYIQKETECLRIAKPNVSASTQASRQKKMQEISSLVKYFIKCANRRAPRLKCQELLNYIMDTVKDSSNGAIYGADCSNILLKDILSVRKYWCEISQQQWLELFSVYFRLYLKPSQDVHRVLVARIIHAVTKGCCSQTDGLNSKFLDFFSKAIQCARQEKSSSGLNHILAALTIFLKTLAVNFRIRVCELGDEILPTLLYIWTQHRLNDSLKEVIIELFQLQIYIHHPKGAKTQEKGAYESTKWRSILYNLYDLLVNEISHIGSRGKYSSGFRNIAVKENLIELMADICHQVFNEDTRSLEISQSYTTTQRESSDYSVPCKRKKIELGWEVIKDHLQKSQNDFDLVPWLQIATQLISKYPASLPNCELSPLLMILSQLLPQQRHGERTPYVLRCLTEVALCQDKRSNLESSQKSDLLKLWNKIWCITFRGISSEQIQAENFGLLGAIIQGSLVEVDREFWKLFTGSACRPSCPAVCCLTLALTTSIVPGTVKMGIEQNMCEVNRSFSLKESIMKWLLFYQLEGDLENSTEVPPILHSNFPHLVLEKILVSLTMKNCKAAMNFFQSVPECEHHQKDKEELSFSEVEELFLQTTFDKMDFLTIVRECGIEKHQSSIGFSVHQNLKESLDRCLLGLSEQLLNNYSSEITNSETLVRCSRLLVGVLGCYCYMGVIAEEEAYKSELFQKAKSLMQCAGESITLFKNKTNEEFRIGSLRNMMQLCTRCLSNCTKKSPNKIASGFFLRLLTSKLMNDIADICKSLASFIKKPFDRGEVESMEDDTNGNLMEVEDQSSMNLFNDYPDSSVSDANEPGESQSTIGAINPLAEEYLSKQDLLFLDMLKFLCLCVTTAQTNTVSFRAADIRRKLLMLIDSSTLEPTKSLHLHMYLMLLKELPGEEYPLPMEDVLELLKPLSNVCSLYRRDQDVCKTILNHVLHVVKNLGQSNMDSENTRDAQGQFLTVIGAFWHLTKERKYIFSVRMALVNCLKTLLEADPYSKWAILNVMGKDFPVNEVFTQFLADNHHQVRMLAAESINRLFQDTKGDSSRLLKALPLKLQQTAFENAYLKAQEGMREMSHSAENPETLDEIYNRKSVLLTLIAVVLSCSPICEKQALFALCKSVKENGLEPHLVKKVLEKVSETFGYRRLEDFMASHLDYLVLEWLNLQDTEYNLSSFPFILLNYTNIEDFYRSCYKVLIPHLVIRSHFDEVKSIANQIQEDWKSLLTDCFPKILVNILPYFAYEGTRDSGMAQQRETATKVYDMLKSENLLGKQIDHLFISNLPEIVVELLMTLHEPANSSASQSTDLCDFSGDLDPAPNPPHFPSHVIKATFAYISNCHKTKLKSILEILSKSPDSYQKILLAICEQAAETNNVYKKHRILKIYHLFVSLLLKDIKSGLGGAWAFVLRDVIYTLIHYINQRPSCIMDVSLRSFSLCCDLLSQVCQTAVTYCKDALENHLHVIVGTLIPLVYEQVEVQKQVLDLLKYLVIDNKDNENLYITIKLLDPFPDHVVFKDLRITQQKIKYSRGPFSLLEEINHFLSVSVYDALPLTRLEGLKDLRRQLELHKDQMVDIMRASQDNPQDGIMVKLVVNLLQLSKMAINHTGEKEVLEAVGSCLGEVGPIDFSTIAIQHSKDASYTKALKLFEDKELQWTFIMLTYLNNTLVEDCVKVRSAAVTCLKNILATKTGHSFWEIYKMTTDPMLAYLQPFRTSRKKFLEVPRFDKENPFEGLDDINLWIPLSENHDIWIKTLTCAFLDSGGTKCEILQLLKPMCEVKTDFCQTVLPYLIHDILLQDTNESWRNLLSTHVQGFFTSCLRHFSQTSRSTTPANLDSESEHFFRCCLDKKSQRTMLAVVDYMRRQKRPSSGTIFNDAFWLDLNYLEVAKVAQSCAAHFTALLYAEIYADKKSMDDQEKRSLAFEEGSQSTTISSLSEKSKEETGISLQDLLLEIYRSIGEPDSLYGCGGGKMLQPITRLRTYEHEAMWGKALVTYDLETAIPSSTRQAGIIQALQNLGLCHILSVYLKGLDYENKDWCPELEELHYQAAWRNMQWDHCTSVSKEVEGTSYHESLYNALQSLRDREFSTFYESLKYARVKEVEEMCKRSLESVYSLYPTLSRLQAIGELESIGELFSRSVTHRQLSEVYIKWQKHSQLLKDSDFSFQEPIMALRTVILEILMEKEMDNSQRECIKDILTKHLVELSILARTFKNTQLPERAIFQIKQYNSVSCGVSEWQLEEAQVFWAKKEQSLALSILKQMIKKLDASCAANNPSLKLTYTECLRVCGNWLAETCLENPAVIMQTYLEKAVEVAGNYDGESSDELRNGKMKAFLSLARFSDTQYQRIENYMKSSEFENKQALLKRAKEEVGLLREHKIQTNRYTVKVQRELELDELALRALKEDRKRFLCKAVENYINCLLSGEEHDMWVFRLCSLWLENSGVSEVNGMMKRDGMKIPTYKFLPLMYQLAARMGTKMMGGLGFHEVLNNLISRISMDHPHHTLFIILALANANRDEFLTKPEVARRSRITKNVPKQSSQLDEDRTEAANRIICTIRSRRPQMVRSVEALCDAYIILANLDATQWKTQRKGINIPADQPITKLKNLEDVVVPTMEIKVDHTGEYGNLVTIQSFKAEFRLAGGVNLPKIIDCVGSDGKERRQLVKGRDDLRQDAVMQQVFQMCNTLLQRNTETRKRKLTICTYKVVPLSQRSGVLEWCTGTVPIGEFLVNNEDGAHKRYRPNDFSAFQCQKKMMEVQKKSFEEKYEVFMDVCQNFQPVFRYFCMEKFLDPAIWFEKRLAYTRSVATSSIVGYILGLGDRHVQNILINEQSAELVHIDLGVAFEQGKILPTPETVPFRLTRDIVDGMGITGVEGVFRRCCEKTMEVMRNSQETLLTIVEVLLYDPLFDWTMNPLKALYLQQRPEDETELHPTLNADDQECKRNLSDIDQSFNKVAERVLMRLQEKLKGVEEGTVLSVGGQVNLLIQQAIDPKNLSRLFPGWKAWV

B1: MBP-tagged human MRI (natural protein, UniProt Q9BWK5 1-157, looked up)
chain: METLQSETKTRVLPSWLTAQVATKNVAPMKAPKRMRMAAVPVAAARLPATRTVYCMNEAEIVDVALGILIESRKQEKACEQPALAGADNPEHSPPCSVSPHTSSGSSSEEEDSGKQALAPGLSPSQRPGGSSSACSRSPEEEEEEDVLKYVREIFFS
binding result: binds
